# Data from the DeepSol protein solubility set.
# Assay: soluble on expression in E. coli; label from the status in PepcDB or PDB records
row,Sequence,soluble on expression in E. coli
1,MKLTLAIPSLNLDEDEIRIPLCLHAFNKILQYGSLHRQSCTASAFYARYLWCGRLVERAAQSLNMPSEAVALATPVWQKMGMHQANVLTAEYLNVGTDEAERICRDLSAFYGDIPWRFVPVLPELWLVSLPCAYRWGAKPVLDLGGLLGADDQPDGEDALEWLRVQTEIQMWLAAHPVNHNRKKRGLPELNGLWLWDGTNGGAQGGTLFADTVWSRFHSDRRALPDNFRAYEETAAHLPDTHHILFMDDLRLTALTGDRERYAAILQQWEERWFAPIYEAVRTGKIKRLDITTDGQHGGTLTFKPADRWKFWRGAKTFDGIW,not soluble
2,MNSSLSLLHPYPFEKLNVLFKDVTPADLPLIPLSIGEPKHPAPEFVKQAIIDNFNHLSTYPNSKGLPELRESIARWLTQRFQLNHISSEDHILPVTGTREGIFSFVQALINRDEAPYVVMPNPFYQIYEGATLLAGAKPYFINCTAENDYLGDFDAVPSEVWEKTALLFVCTPGNPTGAVLSKEKLKKLIQLSDQYNFVIASDECYSELWFDQAPVGLLEVCAEIGRDNYKNCIVFHSLSKRSNLPGMRSGFVAGDAELLKPYLKFRTYHGAAMPVQHQLASIAAWNDEAHVEENRQQYRAKFNLFQSELGQLIPLKKPDAGFYYWLHVDNDEAFAKMLMEKAHIKVLPGRYLSRETEQGNPGENHVRMALVADLAQCEQVVQRLKKVL,not soluble
3,VDQVFVVGHKNLDMDALGSAVGMQLFASNVIENSYALYDEEQMSPDIERAVSFIEKEGVTKLLSVKDAMGMVTNRSLLILVDHSKTALTLSKEFYDLFTQTIVIDHHRRDQDFPDNAVITYIESGASSASELVTELIQFQNSKKNRLSRMQASVLMAGMMLDTKNFTSRVTSRTFDVASYLRTRGSDSIAIQEIAATDF,not soluble
4,GSHMSKKILIVESDTALSATLRSALEGRGFTVDETTDGKGSVEQIRRDRPDLVVLAVDLSAGQNGYLICGKLKKDDDLKNVPIVIIGNPDGFAQHRKLKAHADEAVAKPVDADQLVERAGALIGFPE,soluble
5,AIALVGPAPTTDGSAENTLNEKRLVHGSIAFWLGPRAPQTKTHRWTVYVRGARDPLEDLSLYIQKVEFVLHESFADPVRVVKEPPFCLTEHGWGEFEVIIRLFPISDPDKPVEMYHPLRLFPSVGQELTEKPVVSEHLDVLVFSQPAPEVERALHRSDVARMPSDCWGDLMPLFGGDLHQVEEEDLRKVQQARERVRQQIQATRLQYEALTAELARARTHALHRELS,soluble
6,MEELKELRKEIDRIDEEILRLLNERAKLAKRIGEIKSKANLPIHVPEREREIFEKILRLNKEVYGGVFPQEALVHIYREIISACLSLEKKIKVAYLGPKATFTHQAALEFFGFSAHYTPCSTIRDVFVEVETKRADYGVVPVENTIEGVVNYTLDMFLESDVKIAGEIVIPITLHLLSASDSIENVEKVYSHKMALAQCRSWLEKNLPSVQVIEVESTAKACEIALEDERAGAVASEVAAYTYHLNILARNIQDSGDNFTRFLVIAKRDLKPTGSDKTSILFGVKDEPGALYKALEVFYKHGINLTKIESRPSKKKAWDYVFFVDLEGHKEEERVEKALKELKEKTQFLKVLGSYPKALLQE,soluble
7,MSLEDRIDQVEQAITKSRRYQTVAPATVRRLARAALVAARGDVPDAVKRTKRGLHEIYGAFLPPSPPNYAALLRQLDSAVDAGDDEAVRAALRRAMSVHVSTRERLPHLAEFYQEIFRHVPQPNTLRDLACGLNPLAAPWMGLSDQTVYVASDIDARLIGFVDAALTRLGVAHRTSVVDLLEDRLDEPTDVTLLLKTLPCLETQRRGSGWEVIDIVNSPIIVVTFPTKSLGQRSKGMFQNYSQSFESQARERSCRIQRLEIGNELIYVIQKEGHHHHHH,soluble
8,MNPVEPADLVDIREQLHSGCHIVQAKGFSFLANRIINKELDAKDEKKYRKLLFDCFVVEEDILFRFLIDTLPILLIRGSNSPETLWEEFTLRAPRIRRIQRAFGMMISHCKPSFSKFLDVAARIDSEILTKICISSEFGYNFYQYIAVLSFTGLLSDSQKRLVGNCGLAQNVFLKHQPDLYPTGHESEHDPESFLRECSAEDLLSHPLHNIDPFQRHKLMRDRPAVLESKNLPNHILYLPYAVMLSQYKQVIVKLVEQSKMADHKLASENRVSGCRDTYSFAAPDFSDQDLTFETFMYHTIATGKVTSFIKYVENYHESLGILQKAHLLPALTVFLTHSSTNPSLQERICKLIALFVKKAPENADQFVLYFITLYQKPFFPIHRHLLLETIKDLFVNRFVISSAFGFLKITACLEGDRVRSLECLAEIIPKFTQLFEPMTSLCALKRDDGSDESFYAELHLLKECCKVTEDNEKALSKISNSLKECTGPRLAAIVDAVTDLIKCGVLDTIGARSMLTKRARQRGCEQSLGTYCRLLSTSTIPEENEEQARILRMSCIEELANLKQNDNHTVASEAWRSLGAFELDELEKGLKINPAQFATLFVKLRKEVQNGFIDFLSLCLHKEVESYQRPLYNTSAQDVNVSPLLTKVDTFKDKLIIENKNEPWFWSASLSLSASILQLTGPTNRAQASVRLLQSCLENVVPASSHDEMIRLMAGWRICIREVLHVLTESKSNDILWARDQIINTGRTSLTNKAESVDNIMMMLTALADAIDQQLRNIENDEQVEEVSKAQNPWLLSVYEFVATRLPKNLKEKRVAKNEPIYQLITHSNKSSLLTAIFCLRLLYLNPSVAAFYNDEDVGLTDDRMLVSLLQDSTKELKKEEIPDRKMMWVTAEAYGASQMSAKAFEVAYNIVIDEKTEKYEETELVDDESIEKFFNGLISSPKKDLKEIEQNNKKVLEKLWNNGNNEVRRKIYEGLAELALISGTGRSKMVIPAGKLPEGILKGILQLFDKKINVKPETLRNIIRCLVNHRRNDGRFLPPIDWMKFLERSEWTKADTDARLAMITLACEQNISEVIFHFSSSLTVKELLVLSENLRSVSKLFPRKEFTMILVQMAVQARKEDVETSKKLSMALSDLQKDSTVHNFLMKCLPKLFDISGITDPILNSIKDPDAFGGQISNCFDVWLEARRGEKMNIRRICDIFGKEESNSKKNAICALISHESRTLSRKMRFEKLLDVITASRIARTFGGSMQSFFSIFLSIIVSNNDTVEIPLCWFENQEHVPAMMIAAKQPFYKWIVEAPEMKSNAHHFGSFLSYYVDGPEKQYYEYWHTEGATDLLAMIVSAYPNETFPNLLTQTDEFWKSLLGIADVGK,not soluble
9,MSLCGISGLVQLEGVADTSAMRRSVETMVKALAHRGPDDSGVAGDGSAVFGMARLAIRGCHDGRQPMVDAETGVMMVCNGEIDNHAELRGWLAERGRAVEHATDVAVIPGLYLELGDGFVERLVGAFALAVWDPRRGRLLLARDRAGERPLFYACRDGRVSFASQAAALVAGSPEPYPADEAAVQAFLKAGYFEAPASPFAGMRKVLPGERIAIDVKGVERSRYWRLNFTRGPARKNPLDEFDAVFREAVRRQSEVEVDFGAFLSGGVDSSLVTAVMRSVHPDRKLKAFGLRFSESSYDEGVFAERVAESLGVDYTPIWVRPEDFPETLADLVRQSGEPLADPAWVPTALLARRASDEVRVALVGEGADELFGGYPTYFGARLAERYSRLPGGLRALIRKAVEAWPVSDKKVTVSFLLKRFVQGDELDFLARHVLWTSSIPPALLRRLGVTPPETPHVAGPQETMLDRLQQHDLETSLAEGLLTKADRASMRSALELRAPFLDKDVIEFAATLPERERVQGLETKVFLKRVALRYLPKDIVYRKKRGLSVPLSAWLRGPLHDWAEARISSPRLEELGINRAAALELLREHERRSADHARALWTLIVVSEWLEWKAGMEAHEGHHHHHH,soluble
10,MLRFFIQPQLNTIVDSVIGYEMLIKEYRDGTWRMPASFSAIPAHDMAELLIATAKELSLKVGSVSFNVDRNQILDDQLIHALIAAQTVLRPVKLIIELIENDVKPSVSDEQLIEVVTQLNDFGIQFCLDDVGSGINTWPAVKPLLPYTRELKYALQNYKEHLNESAAENHVTFWQNLATKHQMRFILEGIEDDNDDAWADSMNIDLRQGYYYGRP,not soluble
11,MGSDKIHHHHHHMAVSIEGSPPCSYFMCLQLYSQYIRYNHFMRLNDEQQMNEKHSDHADKTKMPSSETLKQVCQPEERVLGRADDGSVMEFMLQTEHGNTYLCRFPPGFISHAAIQLCTEEIWYFIQGEGVFWIKHEGIERQVPFNAGTALHAPCGGAMQFRNNGHLEAVAHVVTMPPWPGSDGAKLTKGPWESV,not soluble
12,MKHLNFILAGLFFLCGLCCRAQVLPLEENVVLNTKEGQIKGKLLLPGGVKTCPVVLIIAGSGPTDMDGNSAIGNLRNNSLKFLAEGLAANGIASLRFDKRGIGTSASAGKEEAKLRFEDYVNDVTGWIDYLAKEKRFTTITVAGHSEGALIGMLACQNRPKVKGYISVAGAGRPAYEIIEAQVAAQQNPEAVRKEVASINGSLKNGKEVSDVPAYLQSLYRASVQPYLISWFKYNPRTVIASVKVPVLIVQGKNDIQVSVEDAELLKKGCPAAELLLIDKMNHVLKDCESKAVQQQMLTYGNPSLPVNSTLIASVSTFVKKLK,not soluble
13,MERKINRREKEKEYEGKHNSLEDTDQGKNCKSTLMTLNVGGYLYITQKQTLTKYPDTFLEGIVNGKILCPFDADGHYFIDRDGLLFRHVLNFLRNGELLLPEGFRENQLLAQEAEFFQLKGLAEEVKSRWEKEQLTPRETTFLEITDNHDRSQGLRIFCNAPDFISKIKSRIVLVSKSRLDGFPEEFSISSNIIRFKYFIKSENGTRLVLKEDNTFVCTLETLKFEAIMMALKCGFRLLTSLDCSKGSIVHSDALHFIK,soluble
14,MSLTQNIRPLPQFKYHPKPLETGAFEQDKTVECDCCEQQTSVYYSGPFYCVDEVEHLCPWCIADGSAAEKFAGSFQDDASIEGVEFEYDEEDEFAGIKNTYPDEMLKELVERTPGYHGWQQEFWLAHCGDFCVFIGYVGWNDIKDRLDEFANLEEDCENFGIRNSDLAKCLQKGGHCQGYLFRCLHCGKLRLWGDFSEGGSHHHHHH,soluble
15,MAHHHHHHMNTFFLSRFRGGTFFLQKYEKIWNRAKGYHTYNYIFQNNKNIINHKKKNRNLFLYEKRNFYTSNDGKKYTKKFWNHLGFVIIPQETAYIVERLGKYNKTLLAGIHFLIPFIDKIAYVFSLKEETITIPNQTAITKDNVTLNIDGVLYIKCDNPYNSSYAIEDAVFAVTQLAQVTMRSELGKLTLDATFLERDNLNEKLVKAINESAKNWGIKCMRYEIRDIILPVNIKNAMEKQAEAERRKRAEILQSEGERESEINIAIGKKRKSILIAEGQSFAIKAKADATAEAIEIISNKIKKLDSNNAISLLVAEQYIDVFSNICKNNNTVIIPADLNNISSLISQSLSIYNNIQNSKKENNQIHTLPIQKQIHSDMNN,not soluble
16,MSLSQKNNNELPKQAAENTLNLNPVIGIRGKDLLTSARMVLLQAVRQPLHSARHVAHFSLELKNVLLGQSELRPGDDDRRFSDPAWSQNPLYKRYMQTYLAWRKELHSWISHSDLSPQDISRGQFVINLLTEAMSPTNSLSNPAAVKRFFETGGKSLLDGLGHLAKDLVNNGGMPSQVDMDAFEVGKNLATTEGAVVFRNDVLELIQYRPITESVHERPLLVVPPQINKFYVFDLSPDKSLARFCLRNGVQTFIVSWRNPTKSQREWGLTTYIEALKEAIEVVLSITGSKDLNLLGACSGGITTATLVGHYVASGEKKVNAFTQLVSVLDFELNTQVALFADEKTLEAAKRRSYQSGVLEGKDMAKVFAWMRPNDLIWNYWVNNYLLGNQPPAFDILYWNNDTTRLPAALHGEFVELFKSNPLNRPGALEVSGTPIDLKQVTCDFYCVAGLNDHITPWESCYKSARLLGGKCEFILSNSGHIQSILNPPGNPKARFMTNPELPAEPKAWLEQAGKHADSWWLHWQQWLAERSGKTRKAPASLGNKTYPAGEAAPGTYVHEREGHHHHHH,soluble
17,MGSDKIHHHHHHMHFIMMKLFRVVKRGYYISYAILDNSTIIRLDEDPIKALMRYSENKEVLGDRVTGIDYQSLLKSFQINDIRITKPIDPPEVWGSGISYEMARERYSEENVAKILGKTIYEKVYDAVRPEIFFKATPNRCVGHGEAIAVRSDSEWTLPEPELAVVLDSNGKILGYTIMDDVSARDLEAENPLYLPQSKIYAGCCAFGPVIVTSDEIKNPYSLDITLKIVREGRVFFEGSVNTNKMRRKIEEQIQYLIRDNPIPDGTILTTGTAIVPGRDKGLKDEDIVEITISNIGTLITPVKKRRKIT,not soluble
